# Experimental data from the RNAGym collection of RNA variant scans (doi:10.1073/pnas.2313332121).
# B1: TPR t1 (parent)
# chain: GACCAAUCUGCCCUCAGAGCUCGAGAACAUCUUCGGAUGCAGAGGAGGCAGGCUUCGGUGGCGCGAUAGCGCCAACGUCCUCAACCUCCAAUGCAUCCCACCACAUGAUGAUGCCUGAAGAGCCUUGGUUUUUUG
# Variants of: B1
# Assay: polymerase ribozyme fitness, log enrichment relative to wild type (log ratio); higher = more active; in vitro selection for triplet polymerase activity
# In short: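 After PCR construction and transcription, each subunit's mutant library from a heterodimeric triplet polymerase ribozyme was annealed with a biotinylated primer, the partner subunit and triplets. Incubation was frozen, at −7 °C, and extended constructs were gel-excised, bound to streptavidin beads and amplified by RT-PCR, in one selection round done in triplicate. Fitness is the logarithm of a genotype's enrichment divided by that of the wild type, from inverse-variance-weighted replicate averages of Illumina-sequenced inputs and outputs. The base of the logarithm is 2, and genotypes needed ≥10 input reads and ≥1 read per output.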
row,Variant,polymerase ribozyme fitness (log ratio)
1,C8G C12G,0.399
2,C8G G36U C49G C62G U129C,-3.6
3,C8G C49A U96A,-0.377
4,C8G G10A C15G G77C G110A,-3.26
5,C8G G107U,-5
6,C8G U21C C22G G117C C123U C124A,-4.09
7,C8G G42U G45A C56U,-0.791
8,C8G C56A U125A U133G,-0.732
9,C8G C31U G71U G120U,-3.77
10,C8A U132A,0.369
11,C8G U78C G93A C123A,1.83
12,C8G A100U C115U,-2.51
13,C8G G39A A43C C64U,-2.65
14,C8G A16G A90C U96C U112A,0.488
15,C8G G39U,0.57
16,C8G U14A A29G C40G G44U G57C,-2.63
17,C8G A43G G69C,-3.18
18,C8G G39A C73A C97A,-5.92
19,C8G A46G C56A A84C C104A C115U A118U A119U,-4.77
20,C8G C73U A119U,0.0435
21,C8G A68U G77C G120C,-7.19

row,Variant,polymerase ribozyme fitness (log ratio)
1,C8G C70G A100C C123A,-2.51
2,C8G G69A C88A,-2.65
3,C8G C22G U125G U131G,-6
4,C8G A29U U132C,-1.95
5,C8G C15U G48C G71A C124G,0.113
6,C8U A18U U116C,-2.04
7,C8G G19A A119G,-1.07
8,C8G C70U C115U,-2.38
9,C8G A91C G122A,-0.3
10,C8G C114U,-0.759
11,C8G G36U A119G U133G,0.386
12,C8G C79U U96A U130C U133G,-0.147
13,C8U A37U C56U A83C C97U C124A,-1.47
14,C8G C15U C22U,-4.73
15,C8G U87A U112G G113U C123U G127A,-3.6
16,C8G C89A,-1.01
17,C8G C124U,0.949
18,C8G C12G G17C C82A C102U C104A,-5.44
19,C8G C73U C79U,0.882
20,C8G G45A G48A G57A G61U U92G U112G,-6.23
21,C8G G69C U96A,-2.59

row,Variant,polymerase ribozyme fitness (log ratio)
1,C8G G93A G113A,-0.312
2,C8U A37U C86A,-0.897
3,C8G C62U C115U,-0.929
4,C8G C13A G57C U78G U112A A118U,0.98
5,C8G A50U U54C G69U U106A G117A,0.535
6,C8G G113A,0.074
7,C8G G113C,-1.31
8,C8G A18C C89A,-0.827
9,C8G A16G A41G,0.487
10,C8G C53A G117A,0.922
11,C8G C72U A90C A91U A95G,-1.1
12,C8G G47A,-0.0438
13,C8G C40A C72A C98U G127C,-1.39
14,C8G G47A U130C,0.26
15,C8G A16U C94A,-0.757
16,C8U A37U C49G U55A C104A,-1.74
17,C8G C40U G60C,-0.367
18,C8U A26G U54C G60U,-2.1
19,C8G U54G C115A,2.13
20,C8G C56U C97U,0.547
21,C8G A50U C53G C99U C104A C115A A121C,-7

row,Variant,polymerase ribozyme fitness (log ratio)
1,C8G G77C,0.232
2,C8U A29U C70A U87A,-2.4
3,C8G U14A G57A C97U A103C,-6.07
4,C8G G93A A111C,0.513
5,C8G G128U U130C,0.904
6,C8G U14A G107U,-4.05
7,C8G G47A C64U C97A G120U,-4.09
8,C8G C12U C15U G120U,2.64
9,C8G G61U,0.967
10,C8G G44U G61A U78A C82G C115A U130A,0.635
11,C8G C20U G113C,-1.52
12,C8G G61A U109A U132C,-4.05
13,C8G C76U G135A,-0.923
14,C8G G60U,0.698
15,C8G G60A,0.62
16,C8G G60C,0.0647
17,C8G C15G C72G,-1.27
18,C8G A74U U78G,0.422
19,C8G G45A C56U C94A C101A,-1.64
20,C8G C12A G17C A29G A46U G47A C72U,-6.22
